Test results reported in patent publication WO2010028798A1 (dated 2010).

Target: human CCR5 (human, UniProt P51681 1-352)
Assay: cell-based or functional assay

human CCR5, sequence (P51681 whole entry): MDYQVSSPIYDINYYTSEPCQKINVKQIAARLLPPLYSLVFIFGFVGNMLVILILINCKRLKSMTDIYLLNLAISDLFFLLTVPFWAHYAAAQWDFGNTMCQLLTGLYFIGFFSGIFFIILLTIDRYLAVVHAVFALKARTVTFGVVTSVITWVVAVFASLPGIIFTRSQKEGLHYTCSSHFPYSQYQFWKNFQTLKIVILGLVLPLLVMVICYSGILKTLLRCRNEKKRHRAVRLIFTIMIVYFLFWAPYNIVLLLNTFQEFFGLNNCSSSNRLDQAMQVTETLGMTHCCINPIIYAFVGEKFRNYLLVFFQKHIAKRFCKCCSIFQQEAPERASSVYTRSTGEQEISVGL

B1: AA-2320 (antibody)
chain 1: EVKLVESGGGLVKPGGSLKLSCAASGFTFSTYAMSWVRQTPEKRLEWVASISTGDNTYYTDSVRGRFTISRDNARNILYLQMSSLRSEDTAMYFCTRGRGDRGDLFGYWGQGTLVTVSS
chain 2: GGGGSGGGGSEVKLVESGGGLVKPGGSLKLSCAASGFTFSTYAMSWVRQTPEKRLEWVASISTGDNTYYTDSVRGRFTISRDNARNILYLQMSSLRSEDTAMYFCTRGRGDRGDLFGYWGQGTLVTVSSGGGGSGGGGSGGGGSDIVMSQSPSSLAVSVGEKVTMSCKSSQSLLYRGNQMNYLAWYQQKPGQSPKLLIYWASTRESGVPDRFTGSGSGTEFTLTISSVKAEDLTVYYCQQYYTYPRTFGGGTKLEIKR
chain 3: DIVMSQSPSSLAVSVGEKVTMSCKSSQSLLYRGNQMNYLAWYQQKPGQSPKLLIYWASTRESGVPDRFTGSGSGTEFTLTISSVKAEDLTVYYCQQYYTYPRTFGGGTKLEIKR
IC50, antiviral assay in PBMC (HIV-1 NLBal, p24 ELISA): 0.088 nM

B2: AN-1000 (antibody, V domains shown)
VH: B1 chain 1
VL: B1 chain 3
IC50, antiviral assay in PBMC (HIV-1 NLBal, p24 ELISA): 0.988 nM
